The target of the assay is T1, Cullin-5 (Cul5) (UniProt Q93034 1-780).
T1 construct: also called full-length Cul5
T1 sequence: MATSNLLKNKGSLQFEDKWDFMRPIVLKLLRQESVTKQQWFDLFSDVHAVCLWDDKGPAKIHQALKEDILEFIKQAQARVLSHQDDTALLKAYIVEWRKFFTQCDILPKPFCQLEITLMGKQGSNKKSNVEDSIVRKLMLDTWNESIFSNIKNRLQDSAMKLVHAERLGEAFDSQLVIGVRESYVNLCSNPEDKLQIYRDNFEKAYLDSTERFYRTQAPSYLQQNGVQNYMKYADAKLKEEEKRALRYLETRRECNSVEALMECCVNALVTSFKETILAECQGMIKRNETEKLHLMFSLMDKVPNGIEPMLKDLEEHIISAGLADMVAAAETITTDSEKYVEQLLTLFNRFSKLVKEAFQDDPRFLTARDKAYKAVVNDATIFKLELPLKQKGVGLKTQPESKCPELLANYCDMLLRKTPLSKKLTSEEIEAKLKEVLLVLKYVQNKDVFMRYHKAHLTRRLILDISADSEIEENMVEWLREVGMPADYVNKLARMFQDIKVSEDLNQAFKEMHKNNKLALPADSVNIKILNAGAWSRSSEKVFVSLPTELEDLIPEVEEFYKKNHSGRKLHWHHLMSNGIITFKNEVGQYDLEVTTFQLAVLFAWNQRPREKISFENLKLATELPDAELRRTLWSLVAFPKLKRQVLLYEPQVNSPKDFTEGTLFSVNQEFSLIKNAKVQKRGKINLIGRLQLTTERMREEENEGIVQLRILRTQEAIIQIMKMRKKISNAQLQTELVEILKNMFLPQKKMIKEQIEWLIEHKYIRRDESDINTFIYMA
Kind of assay: cross-linking; DSSO cross-linking with LC-MS3 (XL-MS) of reconstituted complexes at ~5 uM in 20 mM HEPES pH 7.5, 300 mM NaCl, 10% glycerol; 37 °C, 30 min; cross-linked SDS-PAGE bands digested in gel with trypsin or chymotrypsin; data of the four complexes pooled. The following applies: both partners purified.

B1: Rbx2 (natural protein)
chain: MADVEDGEETCALASHSGSSGSKSGGDKMFSLKKWNAVAMWSWDVECDTCAICRVQVMDACLRCQAENKQEDCVVVWGECNHSFHNCCMSLWVKQNNRCPLCQQDWVVQRIGK
notes: also called E2 docking protein Rbx2
For B1, the binding result is “binds”.

For the origin of these results see paper PMC8459920 (Molecular & Cellular Proteomics : MCP, 2021).
